Source: US20120003668A1, “HIGH RESOLUTION COMPLEX STRUCTURE AND ALLOSTERIC EFFECTS OF LOW MOLECULAR WEIGHT ACTIVATORS ON THE PROTEIN KINASE PDK1” (UNIVERSITAET DES SAARLANDES, priority 2008, published 2012)
Changes are numbered by the printed parent chain.

What was measured:
PDK1[Thr226Trp] = molecular target: T1, PDK1[Thr226Trp] (Homo sapiens, UniProt O15530, T226W); assay: PDK1 protein kinase activity test with T308tide substrate, Thr226Trp mutant; format: biochemical; conditions: PDK1 CD 50-359, T308tide as substrate
T1 construct: The catalytic domain (CD) of PDK1 50-359 and its mutants Phe224Trp and Thr226Trp were expressed in insect cells and purified; made in house; host or cells: insect cells
T1 sequence (O15530 50-359 T226W): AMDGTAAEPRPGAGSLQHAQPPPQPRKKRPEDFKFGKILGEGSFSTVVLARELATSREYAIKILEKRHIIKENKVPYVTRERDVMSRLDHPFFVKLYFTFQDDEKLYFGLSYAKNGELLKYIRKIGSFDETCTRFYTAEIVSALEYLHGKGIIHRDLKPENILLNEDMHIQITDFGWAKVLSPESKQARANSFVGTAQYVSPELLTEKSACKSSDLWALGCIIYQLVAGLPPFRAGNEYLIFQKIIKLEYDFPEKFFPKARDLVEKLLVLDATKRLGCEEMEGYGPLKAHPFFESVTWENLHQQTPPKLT
Procedure: Protein kinase activity tests: PDK1 activity tests were performed essentially as previously described (Biondi, R. M. et al., Embo. J. 20:4380-4390 (2001); Balendran, A. et al., J. Biol. Chem. 275:20806-20813 (2000); Biondi, R. M. et al., Embo. J. 19:979-988 (2000)) using T308tide as a substrate for PDK1. In brief, PDK1 activity assay was performed at room temperature (22° C.) in a 20 μl mix containing 50 mM Tris pH 7.5, 0.05 mg/ml BSA, 0.1% β-mercaptoethanol, 10 mM MgCl2, 100 μM [γ^32P]ATP (5-50 cpm/pmol), 0.003% Brij, 150 ng PDK1, and T308tide (from 0.1 to 1 mM). When appropriate, the PDK1 activity assay was performed in a 96 well format and 4 μl aliquots spotted with on p81 phosphocellulose papers (Whatmann) using ep motion 5070 (Eppendorf), washed in 0.01% phosphoric acid, dried, and then exposed and analysed using PhosphoImager technology (Typhoon, GE Healthcare). Activity measurements were performed in duplicates with less than 10% difference between pairs. Experiments were repeated at least twice. PDK1 specific activity at 22° C. was approximately 0.25 U/mg when the substrate concentration was 0.1 mM T308tide. […]

PDK1 catalytic domain = molecular target: T2, PDK1 catalytic domain (Homo sapiens, UniProt O15530); assay: TNP-ATP fluorescence probing of the ATP binding site conformation; format: biochemical; conditions: 40 μM TNP-ATP, 15 μM PDK1 catalytic domain
T2 construct: The catalytic domain (CD) of PDK1 50-359 and its mutants
T2 sequence (O15530 50-359): T1 sequence (O15530 50-359 T226W) with W177T
From the text: Probing the conformation of the ATP binding site in PDK1: The activation of PDK1 by HM-polypeptides and small compounds is due to a change in the conformation of the enzyme. We probed the conformation of the ATP binding site in PDK1 by scanning the steady-state fluorescence of TNP-ATP/PDK1, in the presence or absence of P-HM-polypeptides, PIFtide, or small molecular weight compounds. Data were obtained in a Varian Cary Eclipse spectrofluorometer (excitation λ=479 nm; emission scanning, λ=500-600 nm; excitation slit=10 nm; emission slit=10 nm) at a rate of 200 nm/min, with 150 datapoints/100 nm scanning and 0.3 s averaging time. The incubation was performed at 20° C. in a buffer containing 50 mM Tris pH 7.5, 0.1 mM EDTA, 187 mM NaCl, 40 μM TNP-ATP, 15 μM PDK1 catalytic domain, 1 mM DTT and 1% DMSO. In the absence of PDK1, TNP-ATP produced approximately 1.5 arbitrary units (a.u.) of fluorescence, and the inclusion of PDK1 increased its fluorescence intensity to approximately 3.3 a.u. […] In preliminary tests, inclusion of 2.5 mM MgCl2 in the assay mix produced similar results. Data for each condition are the average of 3 scans.

PDK1 Tyr126 mutant = molecular target: T3, PDK1 Tyr126 mutant (Homo sapiens, UniProt O15530, Y126A); assay: Biacore binding of PIFtide (data of Komander et al. 2005); conditions: applicant's estimate from the published biacore data
T3 sequence (O15530 1-556 Y126A): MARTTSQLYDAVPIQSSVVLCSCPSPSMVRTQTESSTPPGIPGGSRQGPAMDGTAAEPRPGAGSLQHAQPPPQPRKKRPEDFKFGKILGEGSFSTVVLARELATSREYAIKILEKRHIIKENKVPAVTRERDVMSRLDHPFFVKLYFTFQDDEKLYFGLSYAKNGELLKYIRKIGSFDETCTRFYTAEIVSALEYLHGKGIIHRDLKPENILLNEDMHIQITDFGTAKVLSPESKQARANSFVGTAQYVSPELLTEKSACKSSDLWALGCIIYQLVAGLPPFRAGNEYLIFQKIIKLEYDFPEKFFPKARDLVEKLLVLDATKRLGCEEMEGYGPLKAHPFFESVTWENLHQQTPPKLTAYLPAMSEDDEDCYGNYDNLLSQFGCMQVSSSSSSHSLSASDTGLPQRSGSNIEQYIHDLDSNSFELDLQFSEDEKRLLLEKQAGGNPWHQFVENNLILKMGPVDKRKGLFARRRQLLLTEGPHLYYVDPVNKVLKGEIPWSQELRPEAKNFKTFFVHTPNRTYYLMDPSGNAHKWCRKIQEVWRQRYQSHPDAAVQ

[1] = molecular target: T4, PDK1 50-359 [Y288G;Q292A] (Homo sapiens, UniProt O15530, Q292A/Y288G); assay: Amide 1H/2H exchange and mass spectrometry
T4 sequence (O15530 with tags, fused parts or gaps Y288G/Q292A): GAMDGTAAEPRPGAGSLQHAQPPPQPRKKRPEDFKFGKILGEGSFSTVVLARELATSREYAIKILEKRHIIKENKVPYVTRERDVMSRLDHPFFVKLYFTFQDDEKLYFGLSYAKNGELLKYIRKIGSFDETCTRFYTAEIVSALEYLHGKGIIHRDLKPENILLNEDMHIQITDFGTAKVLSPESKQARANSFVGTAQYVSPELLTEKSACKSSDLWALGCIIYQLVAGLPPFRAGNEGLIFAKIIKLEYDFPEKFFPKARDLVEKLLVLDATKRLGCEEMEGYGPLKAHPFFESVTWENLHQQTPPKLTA
Procedure: For local exchange analysis, the labeled proteins were digested with pepsin and the resulting polypeptides analyzed by tandem mass-spectrometry (LC-MS/MS) for their incorporation of deuterium atoms. The graphics represent the number of deuterium atoms incorporated into each polypeptide upon the stated incubation time in deuterated water. […] Over time, amide hydrogen atoms exchanged for deuteriums and the molecular weight of the protein increased. We repeated the ^1H/^2H exchange experiments at four different incubation times: 1, 5, 15 and 45 minutes. […] In the presence of peptide or small compounds, protein and ligand solution were pre-incubated on ice for 50 min before the mixture was diluted into labeling buffer. After the exchange reaction, samples were loaded on a pepsin column for one minute for digestion into peptides and samples quenched at each time point. They were then subjected to liquid chromatography for separation and analyzed by tandem mass-spectrometry (LC-MS/MS) for their incorporation of deuterium atoms. The entire plumbing system was immersed in an ice bath. 61 polypeptides were identified with overlapping regions, covering 80% of PDK1 sequence. As it is not possible to predict the cleavage sites of pepsin in the PDK1 sequence, it was necessary to identify the peptides generated by pepsin digestion for local-exchange analysis.

effect on TNP-ATP fluorescence intensity in the presence of PDK1 (PDK1 catalytic domain): decreased | decreased affinity for PIFtide of the Tyr126 mutant (PDK1 Tyr126 mutant): over 30 fold | global exchange protection, 2H less incorporated/PDK1 molecule ([1]; after 45 minutes, PIFtide 0.625 mM, PS48 500 μM, PS08 250 μM): 20 ^2H | 2H less incorporated (protection), peptide 122-134 (α-C-helix) ([1]; first time point (1 min)): five
Sequence: REPRILSEEEQEMFRDFDYIADWC [PIFtide]
activation of PDK1[Thr226Trp] (PDK1[Thr226Trp]): not activated
